Assay results taken from PMC3828517 (Genes & Development, 2013).

Legend:
[1] = target: Lrp6 β-propeller domains 1–2 (BP1–2), His8-tagged (human); experiment: AlphaScreen or HTRF
[2] = target: T1, MBP-Norrin (human Norrin residues 25–133 fused to the C terminus of maltose-binding protein) (human), Q00604; experiment: SEC; settings: remark: other sources report otherwise
T1 chain: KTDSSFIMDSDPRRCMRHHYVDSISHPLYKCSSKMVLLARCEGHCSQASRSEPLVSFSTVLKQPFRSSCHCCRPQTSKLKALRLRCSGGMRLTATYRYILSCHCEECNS

[3] = target: T2, Fz4-FcH6 (Frizzled 4 cysteine-rich domain fused with an FcH6 tag) (human, UniProt Q9ULV1 40-164); experiment: AlphaScreen or HTRF
T2 sequence: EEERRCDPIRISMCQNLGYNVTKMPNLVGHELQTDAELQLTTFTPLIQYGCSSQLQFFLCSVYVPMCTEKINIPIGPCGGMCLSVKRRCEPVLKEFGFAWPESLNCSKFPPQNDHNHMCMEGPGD

[4] = target: T3, Lrp6BP2-FcH6 (Lrp6 β-propeller 2 as an Fc fusion protein) (human, UniProt O75581 325-631); experiment: BLI
T3 sequence: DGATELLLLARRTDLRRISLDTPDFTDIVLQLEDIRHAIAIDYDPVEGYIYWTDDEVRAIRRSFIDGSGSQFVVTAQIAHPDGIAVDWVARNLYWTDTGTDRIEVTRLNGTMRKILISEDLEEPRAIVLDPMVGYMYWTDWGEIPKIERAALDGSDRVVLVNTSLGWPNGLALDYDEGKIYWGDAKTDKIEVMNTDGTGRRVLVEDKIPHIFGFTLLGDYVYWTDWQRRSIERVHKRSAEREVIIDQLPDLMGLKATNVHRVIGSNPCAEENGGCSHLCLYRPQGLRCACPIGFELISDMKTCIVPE

[5] = target: T2, Fz4-FcH6 (Frizzled 4 cysteine-rich …); experiment: BLI
[6] = target: T3, Lrp6BP2-FcH6 (Lrp6 β-propeller 2 as an …); experiment: AlphaScreen or HTRF
[7] = target: the molecule itself; experiment: crystal structure

MBP-Norrin C55A/C110A mutant protein (from UniProt Q00604 25-133) (ligand)
IC50 [1]: 207 nM

MBP-Norrin R41E mutant protein (from UniProt Q00604 25-133) (ligand)
IC50 [1]: 288 nM

B1: MBP-Norrin (human Norrin residues 25–133 fused to the C terminus of maltose-binding protein), Q00604 25-133 (ligand)
chain: KTDSSFIMDSDPRRCMRHHYVDSISHPLYKCSSKMVLLARCEGHCSQASRSEPLVSFSTVLKQPFRSSCHCCRPQTSKLKALRLRCSGGMRLTATYRYILSCHCEECNS
stoichiometry N [2]: 2

B2: MBP-Norrin (human Norrin residues 25–133 fused to the C terminus of maltose-binding protein) (ligand)
chain: KTDSSFIMDSDPRRCMRHHYVDSISHPLYKCSSKMVLLARCEGHCSQASRSEPLVSFSTVLKQPFRSSCHCCRPQTSKLKALRLRCSGGMRLTATYRYILSCHCEECNS
IC50 [3]: 34 nM | binding result [4]: binds | Kd [5]: 5 nM

B3: MBP-Norrin C55A/C110A mutant protein (ligand)
chain: KTDSSFIMDSDPRRCMRHHYVDSISHPLYKASSKMVLLARCEGHCSQASRSEPLVSFSTVLKQPFRSSCHCCRPQTSKLKALRLRASGGMRLTATYRYILSCHCEECNS
IC50 [3]: 37 nM

B4: MBP-Norrin K54E/R109E mutant protein (ligand)
chain: KTDSSFIMDSDPRRCMRHHYVDSISHPLYECSSKMVLLARCEGHCSQASRSEPLVSFSTVLKQPFRSSCHCCRPQTSKLKALRLECSGGMRLTATYRYILSCHCEECNS
IC50 [3]: 18 nM

B5: biotinylated MBP-Norrin (AviTag-MBP-Norrin, biotinylated in vivo) (ligand)
chain: KTDSSFIMDSDPRRCMRHHYVDSISHPLYKCSSKMVLLARCEGHCSQASRSEPLVSFSTVLKQPFRSSCHCCRPQTSKLKALRLRCSGGMRLTATYRYILSCHCEECNS
modifications: biotin on the AviTag (in vivo biotinylation by BirA)
binding result [6]: binds | Kd [3]: 11 nM

B6: MBP-Norrin truncation construct (Norrin residues 31–133 fused with MBP at its N terminus), as crystallized (ligand)
chain: IMDSDPRRCMRHHYVDSISHPLYKCSSKMVLLARCEGHCSQASRSEPLVSFSTVLKQPFRSSCHCCRPQTSKLKALRLRCSGGMRLTATYRYILSCHCEECNS
binding result [7]: binds
